Results: publication PMC6015067

How the values were obtained:
[1] = molecular target: His-tagged full-length Ajuba (UniProt Q96IF1); experiment: pull-down; His-tag pull-down on Ni-NTA beads of proteins co-translated in one rabbit reticulocyte lysate reaction with 35S-methionine; beads blocked with 2% BSA, 30 minutes at room temperature, TBST pH 8.0, six washes; autoradiography, signal normalized to input and number of methionines
[2] = molecular target: LIM protein Ajuba (human (endogenous in HTC75)) (UniProt Q96IF1); experiment: co-IP; IP-Western of endogenous proteins from HTC75 total extracts (also IMR90) with Ajuba serum or antibodies to RPA70, RPA32 or RPA14; cells untreated, treated with 2 mM hydroxyurea for 24 hr (association reduced) or synchronized by double thymidine block and released for 2 hr (no perceptible effect)

Sequence of RPA70-OB½ABC (P27694 234-612): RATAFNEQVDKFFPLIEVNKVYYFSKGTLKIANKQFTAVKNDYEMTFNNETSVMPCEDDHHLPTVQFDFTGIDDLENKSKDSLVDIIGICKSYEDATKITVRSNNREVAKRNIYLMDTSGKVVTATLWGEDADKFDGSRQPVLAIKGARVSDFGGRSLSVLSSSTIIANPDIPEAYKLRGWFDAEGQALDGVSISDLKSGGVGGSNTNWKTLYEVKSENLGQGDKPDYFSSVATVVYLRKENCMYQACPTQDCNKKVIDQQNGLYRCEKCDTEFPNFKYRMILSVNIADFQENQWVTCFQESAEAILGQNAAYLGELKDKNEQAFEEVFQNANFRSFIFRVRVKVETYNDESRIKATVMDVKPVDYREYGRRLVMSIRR

| pull down relative to full-length RPA70 (set at 100%) [1] [%] | pull down efficiency (% of total RPA in association with Ajuba) [2] [%] | Substance |
| --- | --- | --- |
| 58.7 |  | RPA70-OB½ABC (from UniProt P27694 234-612) (domain or fragment) |
|  | 2 to 5 | total RPA |
